In IntAct's records for PubMed 19879842:
Changes are numbered by the printed parent chain.

B1: Dual specificity tyrosine-phosphorylation-regulated kinase mbk-2 (Caenorhabditis elegans), Q9XTF3-2 (parent)
chain: MTLFEPSTSGNRMGYRGSSNSSSGVGSGGSGSLMTQSIGGPNKHLSASHSTLNTASTHDMMHSKIPKSPSNESLSRSHTSSSGGSQGGHNSNSGSNSGFRPEDAVQTFGAKLVPFEKNEIYNYTRVFFVGSHAKKQAGVIGGANNGGYDDENGSYQLVVHDHIAYRYEVLKVIGKGSFGQVIKAFDHKYQQYVALKLVRNEKRFHRQADEEIRILDHLRRQDSDGTHNIIHMLDYFNFRNHKCITFELLSINLYELIKRNKFQGFSLMLVRKFAYSMLLCLDLLQKNRLIHCDLKPENVLLKQQGRSGIKVIDFGSSCFDDQRIYTYIQSRFYRAPEVILGTKYGMPIDMWSLGCILAELLTGYPLLPGEDENDQLALIIELLGMPPPKSLETAKRARTFITSKGYPRYCTATSMPDGSVVLAGARSKRGKMRGPPASRSWSTALKNMGDELFVDFLKRCLDWDPETRMTPAQALKHKWLRRRLPNPPRDGLESMGGLADHEVCFIIF
partner: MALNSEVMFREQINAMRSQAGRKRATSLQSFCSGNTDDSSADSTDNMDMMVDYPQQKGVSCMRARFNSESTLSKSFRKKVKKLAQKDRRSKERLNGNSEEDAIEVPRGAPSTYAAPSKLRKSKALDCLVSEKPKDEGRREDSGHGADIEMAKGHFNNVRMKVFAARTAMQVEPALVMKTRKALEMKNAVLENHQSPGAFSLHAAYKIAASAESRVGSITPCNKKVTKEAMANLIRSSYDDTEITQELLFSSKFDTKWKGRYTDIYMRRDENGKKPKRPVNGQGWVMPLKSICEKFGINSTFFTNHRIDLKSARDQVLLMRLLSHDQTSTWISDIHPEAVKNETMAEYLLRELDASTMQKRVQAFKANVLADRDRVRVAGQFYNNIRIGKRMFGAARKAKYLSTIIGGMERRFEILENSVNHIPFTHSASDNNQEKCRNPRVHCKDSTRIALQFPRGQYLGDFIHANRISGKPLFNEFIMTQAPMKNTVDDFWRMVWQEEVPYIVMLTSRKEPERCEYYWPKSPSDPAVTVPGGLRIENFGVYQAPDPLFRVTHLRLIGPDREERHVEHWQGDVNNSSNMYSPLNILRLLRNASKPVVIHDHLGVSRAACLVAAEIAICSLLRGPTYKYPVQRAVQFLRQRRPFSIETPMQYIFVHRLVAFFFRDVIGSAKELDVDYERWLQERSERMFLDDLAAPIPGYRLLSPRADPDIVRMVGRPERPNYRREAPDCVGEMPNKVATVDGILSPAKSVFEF
B2: Dual specificity tyrosine-phosphorylation-regulated kinase mbk-2 (Caenorhabditis elegans), Q9XTF3-2 (parent)
chain: B1 chain
partner: B1 partner with R139S, N157D, T255S, M344L, K444R, T739A

Variants of: B1
Details: with egg4_caeel egg-4, O01767

Row | Variant | effect of a mutation on the interaction
1 | MTLFEPSTSGNRMGYRGSSNSSSGVGSGGSGSLMTQSIGGPNKHLSASHSTLNTASTHDMMHSKIPKSPSNESLSRSHTSSSGGSQGGHNSNSGSNSGFRPEDAVQTFGAKLVPFEKNEIYNYTRVFFVGSHAKKQAGVIGGANNGGYDDENGSYQLVVHDHIAYRYEVLKVIGKGSFGQVIKAFDHKYQQYVALKLVRNEKRFHRQADEEIRILDHLRRQDSDGTHNIIHMLDYFNFRNHKCITFELLSINLYELIKRNKFQGFSLMLVRKFAYSMLLCLDLLQKNRLIHCDLKPENVLLKQQGRSGIKVIDFGSSCFDDQRIFTFIQSRFYRAPEVILGTKYGMPIDMWSLGCILAELLTGYPLLPGEDENDQLALIIELLGMPPPKSLETAKRARTFITSKGYPRYCTATSMPDGSVVLAGARSKRGKMRGPPASRSWSTALKNMGDELFVDFLKRCLDWDPETRMTPAQALKHKWLRRRLPNPPRDGLESMGGLADHEVCFIIF [Y325F;Y327F] | decreasing interaction
2 | MTLFEPSTSGNRMGYRGSSNSSSGVGSGGSGSLMTQSIGGPNKHLSASHSTLNTASTHDMMHSKIPKSPSNESLSRSHTSSSGGSQGGHNSNSGSNSGFRPEDAVQTFGAKLVPFEKNEIYNYTRVFFVGSHAKKQAGVIGGANNGGYDDENGSYQLVVHDHIAYRYEVLKVIGKGSFGQVIKAFDHKYQQYVALRLVRNEKRFHRQADEEIRILDHLRRQDSDGTHNIIHMLDYFNFRNHKCITFELLSINLYELIKRNKFQGFSLMLVRKFAYSMLLCLDLLQKNRLIHCDLKPENVLLKQQGRSGIKVIDFGSSCFDDQRIYTYIQSRFYRAPEVILGTKYGMPIDMWSLGCILAELLTGYPLLPGEDENDQLALIIELLGMPPPKSLETAKRARTFITSKGYPRYCTATSMPDGSVVLAGARSKRGKMRGPPASRSWSTALKNMGDELFVDFLKRCLDWDPETRMTPAQALKHKWLRRRLPNPPRDGLESMGGLADHEVCFIIF [K196R] | decreasing interaction

Variants of: B2
Details: with egg5_caeel egg-5, O61789

Row | Variant | effect of a mutation on the interaction
3 | MTLFEPSTSGNRMGYRGSSNSSSGVGSGGSGSLMTQSIGGPNKHLSASHSTLNTASTHDMMHSKIPKSPSNESLSRSHTSSSGGSQGGHNSNSGSNSGFRPEDAVQTFGAKLVPFEKNEIYNYTRVFFVGSHAKKQAGVIGGANNGGYDDENGSYQLVVHDHIAYRYEVLKVIGKGSFGQVIKAFDHKYQQYVALKLVRNEKRFHRQADEEIRILDHLRRQDSDGTHNIIHMLDYFNFRNHKCITFELLSINLYELIKRNKFQGFSLMLVRKFAYSMLLCLDLLQKNRLIHCDLKPENVLLKQQGRSGIKVIDFGSSCFDDQRIFTFIQSRFYRAPEVILGTKYGMPIDMWSLGCILAELLTGYPLLPGEDENDQLALIIELLGMPPPKSLETAKRARTFITSKGYPRYCTATSMPDGSVVLAGARSKRGKMRGPPASRSWSTALKNMGDELFVDFLKRCLDWDPETRMTPAQALKHKWLRRRLPNPPRDGLESMGGLADHEVCFIIF [Y325F;Y327F] | decreasing interaction
4 | MTLFEPSTSGNRMGYRGSSNSSSGVGSGGSGSLMTQSIGGPNKHLSASHSTLNTASTHDMMHSKIPKSPSNESLSRSHTSSSGGSQGGHNSNSGSNSGFRPEDAVQTFGAKLVPFEKNEIYNYTRVFFVGSHAKKQAGVIGGANNGGYDDENGSYQLVVHDHIAYRYEVLKVIGKGSFGQVIKAFDHKYQQYVALRLVRNEKRFHRQADEEIRILDHLRRQDSDGTHNIIHMLDYFNFRNHKCITFELLSINLYELIKRNKFQGFSLMLVRKFAYSMLLCLDLLQKNRLIHCDLKPENVLLKQQGRSGIKVIDFGSSCFDDQRIYTYIQSRFYRAPEVILGTKYGMPIDMWSLGCILAELLTGYPLLPGEDENDQLALIIELLGMPPPKSLETAKRARTFITSKGYPRYCTATSMPDGSVVLAGARSKRGKMRGPPASRSWSTALKNMGDELFVDFLKRCLDWDPETRMTPAQALKHKWLRRRLPNPPRDGLESMGGLADHEVCFIIF [K196R] | decreasing interaction
